Experimental data as given in the nanobody polyreactivity screen of Harvey et al. (2022).

Assay: yeast display, Sf9 membrane polyspecificity reagent, FACS + sequencing; frameworks hold sequencing errors
Method in brief: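 Galactose induction of a Saccharomyces cerevisiae BJ5465 synthetic nanobody display library ran 36–48 hours. The cells were then stained for 1 hour at 4 °C with 10% biotinylated, detergent-solubilized Sf9 membrane reagent, pulled down on streptavidin microbeads and FACS-sorted into low and high (top ~1%) gates on expression and reagent-binding fluorescence. Labels for polyreactivity follow the gate of origin.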

Sequence	polyreactivity (PSR sort gate)
QVLLVESGRVLVQAGGSLRLSCAASVSIFANYAMARYIQAPGKERELVASITSSARRTFYADSVKGRFTISRDNAKNTVYLQMNSLKPEVTAVYYCAAKHRRRTVSTRYDDWGQGTQGTVSS	high polyreactivity
QVQLVESGGGLVQAGGSLRLSCAASGGIFVGYAMGWYRQAPGKERELVASIDGSDGSTFYADSVKGRFTISRDNAKNTVYLQMNSLKPVDTAVYYCNARATLLSPANTIRGYDYWGQGTQVTVSS	low polyreactivity
QVQLVESGGGLVQAGGSLRLSCAASGSTFLYNTMGWSRQAPGKERELVATITSRGDRTYYADSVKGRFPISRENAKNTVYLQMNSLKPEDTADYYCAALLYIRSVGYDYWGQGPQVTVSS	low polyreactivity
QVQLVESGEGLVQAGGSLRLSCAASGRIFYSNDMGWYRQAPGKEREFVAAITDSGGSTYYADSVKGRFTISRDNAKNTVYLQMNSLKPEDTAGYYCAKRQYQSYIRGPYYYWGQGTQVNVSS	low polyreactivity
QVQLVESAGGLVQAGGILRLSCAASGGIFRGYAMGWYRQAPGKERELVATIRSSGRTNYADSVKGRFTISRDNAKNTVYLQMNSLKPEDTAVYYCNKRRWWQYDRWGDWVLGGDDYWGQGTQVTVSS	low polyreactivity
QVQLVESGGGLDQAGGSLRLSCAASGFTFTGYAMGWYRQAPGKERELVAAITRGGGSTYYADSVKGRFTISRDNAKNTVYLQMNSLKPEDTAVYYSAAQRSRLIRISSPYYGHDYWGQGTQVTVSS	low polyreactivity
QVQIVESGGGLVQAGGSLRLSCAASGIIFYYYAMGWYRQAPGKERELVAAITKSGGSTYYADSVKGRFTISRDNAKNTVYLQMNSLKPEDTAVYYCAAEYSYYPLVGLDYWGQGTQVTVSS	low polyreactivity
QVQLVESGRGLVQAGGSLRLSCAASGRSFAVYAMAWYRPAPGKVMELVAAISSGGSTYYADSVKGRFTSSRDNAKNTVYVQMNSLKPEDSSVSYCAAGWKRLSGRKHYYWGQGTQVTVSS	high polyreactivity
QVQLVESGGCLVQAGGSRRLSWAASGRIFDTYTMGWYRQAPGKERELVAAITSGGSTYYADSVKGRFTISRDNAMNTVYLQMNSLKPEDTAVYYCAARYRSIIRYYYWGQGTQVTVSS	high polyreactivity
QVQLVDSGGGLVQAGGSLRLSCAASGSILAGNVMGWYRQAPGKERELVASITFRGSRTYYADSVKGRFTISRDNAKNTVYLQMNSLKPEDTAVYYCNADVWASGSRGEGYWGQGTQVTVSS	low polyreactivity
QVQLVESGVGLVQSGGSLRLRCAASGFTFVSYALGWYRQAPGKERELVASISKRGGTTYYADSVKGRFTISRENAKNTVYLQMNSLKPEDTAVYYCNARDTRRYVTYDSGYDYWGQGTQVTVSS	high polyreactivity
QVQLVESGGGLVQAGGSLRLSCAASGFIFSRYAMGWYRQAPGKERELVAAISWSGASTYYADSVKGRFTISRDNAKNTVYLQMNSLKPEYTAVYYCNAVVTYHYSVSSVGSRYDYWGQGTQVTVSS	high polyreactivity
QVQLVESGGGLVQAGGSLRLSCAASGNIFFRYTMGWYRQAPGKERELVAASSASGGSTYYADSVKGRFTISRDNAKNTVYLQMNSLKPEDTAVYYCAARILHYTSEYYYWGQGTQVTVSA	high polyreactivity
QVQLVESGGGLVQAGGSLRLSCAASGLTFSGYSMGWYRQAPGKERELVAAITSGGNTYYADSVNGRFTISRDNAKNTVYLQMNSLKPEDTAVYYCNVADWRRWGYDYWGQGTQVTVSS	low polyreactivity
QVQLVESGGGFVQAGGSLRLSCAASGFSFGYSAMGWYRQAPGKERELVAAINNADSTYYADSVKGRFPISRDNAKNTVYLQMNSLKPEDTAVYYCAAVVDYGWWLAYDYWGQGTQVTVSS	high polyreactivity
QVQLVESGGGLVQAGGSLRLSCAASGNTFYPYAMGWYRQAPGKERELVAAITSSGGSTYYADSVKGRFTISRDNAKNTVYLQMNSLKPEDTAVYYCAADPDWYSPFKYCYWGQGTQVTVSS	low polyreactivity
QVQLVESGGGLVQAGGSLRLSCAASGRIFGYYAMGWYRQAPGQERELVAAITRNGGSTYYADSVKGRFTISRDNAKNTVYLQMTSLKPEDTAVYYCAATKGGGRGYWGQGTQVTVSS	high polyreactivity
